# Assay: yeast display, Sf9 membrane polyspecificity reagent, FACS + sequencing; frameworks hold sequencing errors
# How it was run: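 Using colony PCR, genes from sorted yeast display clones were amplified, then sequenced on MiSeq at 2 × 250 and filtered by CDR length. The clones had been stained with 10% biotinylated, detergent-solubilized Sf9 membrane reagent for 1 hour at 4 °C and sorted by FACS into low and high (top ~1%) gates on anti-HA and streptavidin fluorescence. Polyreactivity labels come from the gate of origin.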
row,Sequence,polyreactivity (PSR sort gate)
1,QVQLVESGGGLVQAGGSLRLSCAASGSTFKIYAMAWYRQAPGKERELVAAITGSGGSTYYADSVKGRFTISRDNAKNTVYLQMNSLKPEDTAVYYCAVDVYYYVATEFYEYDYWGQGTQVTVSS,high polyreactivity
2,QVQLVESGACLVQAGGSLRLSCAASGFIFPRNAMGWYRQAPGKERELVAAITKSGGSTYYADSVKGRFTISRDNAKNTVYLQMNSLKPEDTAVYYCAATDSATELYYRMDYWGQGTQVTVSS,high polyreactivity
3,QVQLVESGGGLVQAGGSLRLICAASGRIFRYNAMGWYRQAPGKERELVAAISSVGSTNYADSVKGRFTISRDNAKNTVYLQMNSLKPEDTAVYYCNAVVRSYVKTYRYYKVDYWGQGTQVTVSS,high polyreactivity
4,QVQLVESGGGLVQAGGSLRLSCAASGSTFSLYTMGWYRQAPGKERELVAAITWTGGSTYYADSVKGRFTISRDNAKNTVYLQMNSLKPEDTAVYYCAAVSRLTGSRESQLIRSRMYYWGQGTQVTVSS,high polyreactivity
5,QVQLVESAGGLVQAGGSLRLSCAASGLTQASYAMGWYRQAPGKERELVAAISRRSGRTYYADSVKGRFTISRDNAKNTVYLQMNSLKPVDTAVYYCNRGYTAQVYTEFDYWGQGTQVTVSS,low polyreactivity
6,QVQLVESGGGLVQAGGSLRLSCAASGSIFGYYAMGWYRQARGNERELGAAIRSTGSTNYADSVKGRFTISRDNAQNTVYLQMNSLKPEDTAVYYCAAGDITGGSGNWVVTPYDYGGQGTQVTVSS,high polyreactivity
7,QVQLVESGGGLVQAGGSLRLSCAASGFIFRYYAMGWYRQEPGKERELVAAIDYSGGSTNYADSVKGRFTISRDNAKNTVYLQMNSLKPEDTAVYYCNAEYTWHRGYDYWGQGTQVTVSS,low polyreactivity
8,QVQLVESGGGLVQAGGSLRLSCAASGITFDLYVMGWYRQAPGKERDLVAAINRGTSTYYADSVKGRFTISRDNAKITVYLQMNSLKPEDTAVYYCAADSGGVALYRYDYWGKGTQVTVSS,low polyreactivity
9,QDQLVESGGGLVQAGGSLRLRCAASGFTFGCYAMGWYRQAPGKERELVASITSGGSTNYADSVKGRFTISRDNAKNTVYLQMNTLKPEDTAVYYCAKDLLGFDKVQYKIEDYWGQGTQVTVSS,low polyreactivity
10,QVQLVESGGGLVQAGGSLRLICAASGFTFFSYTMGWYRQAPGKERELVAAISKRGSRTYYADSVKGRFTISRDNAKNTVYLQMNSLKQEDTAVYYCAADSGPEVVHRREDYWGQGTQVTLSS,high polyreactivity
11,QVQLVESGGGLVQAGGSLRLSCAASGSTFYAYAMGWYRQAPGKERELVAAINGSGGSTNYADSVKGRFTISRDNAKHTDYLQMNSQKPEDTAVYYCAADWSRRLYDYWGQGTQVTVSS,low polyreactivity
12,QVQLVESGGGLVQAGGSLRLSCAASGRIFNQYGMGWYRPAPGKERELVAAIRYGDSTNYADSVKGRFTISRDNAKNTVYLQMNSLKPEDTAVYYCARDPAGDYAGYDYWGQGTQVTVSS,low polyreactivity
13,QVQLVESGGGLVQAGGSLRLSCAASGSIFSDNAMGWYRQAPGKERDLVAAISWIGDSTDYADSVKGRFTISRDNAKNTVYLQMNSLKPEDTAVYYCAADAKVVSPRYRANDIGMFYWGQGTQVTVSS,low polyreactivity
14,QVQLVESGGGLVQAGGSLRLSCAASGNIFSINAMGWYRQAPGKERELVAAISWSGGSTYYADSVKGRFTISRDNAKNTVYLQMNSLKPEDTAVYYCAADVYYLGYYEYYYWGQGTQVTVSS,high polyreactivity
15,QVQLVESGGGLVQAGGSLRLSCAASGRTFASYAMGWYRQAPGKERELVAGITSGGNTYYADSVKGRFTISRDNAKNTVYLQMNSLKPEDTAVYYCAADRVYLGLFRYEYWGQGTQVTVSS,high polyreactivity
16,QVQLVESGGGLVQAGGSLRLSCAASGFIFPYFAMGWYRQAPGKERELVAAISGSGGSTYYADSVKGRFTISRDNAKNTVYLQMNSLKPEDTAVYYCAASARRLNMGYWGQGTQVTVSS,high polyreactivity
17,QVQLVESGVGLDQAGGSLRLSCAASGSIFIINAMGLYRQAPGKERELVARISNGGNTYADSVKGRFTISRDNAKNTVYLQMKSLKPEDTAVYYCAARAYARRPKYVPKFDYWGQGTQVTVSS,high polyreactivity
18,QVQLVESGGGLVQAGGSLRLSCSASGRIFHRYTMGWYRQSPGKEREFVAAITTRAGSTYYADSVKGRFTISRDNAKYTVFLQMNSLKPEDTAVYYCNIRRHSMFGGTTTRYDFWGQGTQVTVSS,high polyreactivity
19,QVHRVVSGGGLVQAGGSLRLSCSAYGFTFYLYAMGWYRQAPGKERELVAAISSGTSTYYADSVKGRFTISRDNAKNTVYLQMNSLKPEDTAVYYCDAATNWGGEYWGHGTQVTVSS,high polyreactivity
20,QVQLVESGGGLVQARGSLRLSCAASGSTFRYYAMGLYRQAPGKERELVAAITSSGTSTYYADSVKGRFTISRDNAKNTVYLQMISLKPEDTAVYYCAAPPVYKWVSSRYDYWGQVTQVTVSS,low polyreactivity
21,QVQLVESGGGLGEAGGSLRLSCAASGSTFGYYAMGWYRQAAGKEREFVAAITGNSDNTYYADSVKGRFTISRDNATNTVYLQMNSLKPEDTAVYYCNDALDPFRFEYWRQGTQVTVSS,low polyreactivity
22,QVQLVESGGGLVQAGGSLRLSCAASGSTFLSYAMGWYRQAPGKERELVAAISCRGGSTYYADSVKGRFTISRDNAKNTVYLQMNSLKPEDTAVYYCARVYRPSADTYNYWGQGTKVTVSS,high polyreactivity

row,Sequence,polyreactivity (PSR sort gate)
1,QVQLVESVGGLVQAGGTLRLSCAASGSTFNINAMGWYRQAPGKERELVAAISWSGDITYYADSVKGRFTISRDNAKNTVYLQMNSLKPEDTAVYYCNTDDPVNYWYAEYDYWGQGTQVTVSS,low polyreactivity
2,QVQLVESGGGLVQAGGSLRLSCAASGSIFGYYAMGWYRQAPGKERELVAAITRSGGRTYYADSVKGRFTISRDNAKNTVYLQMNSQKPEDTAVYYCATEWLKDRYPYGYWGQGTQVTVSS,high polyreactivity
3,QVQLVESGGGLVQAGGILRLSSAASGSTFFNYAMGWYRQAPGKERELVAAISSSGGRTYYADSVKGRFTISRDNAKNTVYLQMNSLKPEDTSVYYCAASGRKHGMNYWGQGTQVTVSS,high polyreactivity
4,QVQLVESGGGLVQAGGSLRLSCAASGFTLYRYAMGWYRQAPAKERELVAANNSRGGSTYYADSVKGRFTISRDNAKITVYLQMISLKPDDTAVYYCNARRIRGGVRLTSPFYYWGQGTHVTVSS,high polyreactivity
5,QDQLVESVGGLVQAGVSLRLSCAASGSTLRKYAMGWYRQAPGKESELVAAISNSGGGTYYADSVKGRFTISRDNAKNTVYLQMNSLKPEDTAVYYCAARYGPSYGYGLYYPRRDYWGQGTQVTVSS,high polyreactivity
6,QVQLVESGGGLVQAGGSLRLSCAASGSTFTLYAMGWYRQAPGKERELVAAISGIGDSTYYADSVKGRFTISRDYAKNNVYLQKNSLKPEDTAVYYCAADGEYRYDWEYESWGQGTHVTVSS,low polyreactivity
7,QVQLVESGGGLVQAGGSLRLSCAASGSTFGRYAMGWYRQAPGKERELVAAISRGTTTNYADSVKGRFTISRDNAKNTVYLQMNILKPEDTAVYYCAAQTDSVESDYWGQGTQVTVSS,low polyreactivity
8,QVQLVESGGGLVQAGGSLRLSCAAYGRIFGWYAMGWYRQAPGKERELVAAISSSTSTYYADSVKGRFTISRDNEKNTVYLQMNSLKPEDTAVYYCNADWYYQRVQYYWYRYDYWGQGTQVTVSS,high polyreactivity
9,QVQLVESGGGLVQAGGSLRLSCAASGRIFRYNAMGWYRQAPGKERELVADISKRGGSTYYADSVKGRFTISRDNAKNTVYLQMNSLKPEDTAVYYCNARNTYYVVANDYWGQGTQVTVSS,high polyreactivity
10,QVHLVDSGGGLVQAGGSLRLSSADSGSTFAANAIGWYRQAPGKERELVAAITSSGGSTYYADSVKGRFTISRDNATNTVYLQKNSLKPEDTAVYYCNKDMERYVRIYDSWGQGSQVTVSS,low polyreactivity
11,QVQLVESGGGLVQAGGSLRLSCAASGSTFPYYAMGWYRQAPGKEREFVAAISYRGGSTYYADSVKGRFTISRDNAKNTVYLQMNSLKPEDTAVYYCAARSWQDRYANGYNYWGQGTQVTVSS,high polyreactivity
12,QVQLVESGGGLVQAGGSLRLSCAASGRIFTYNAMGWYRQAPGKERELVAVISRRGGSTYYADSVKGRFTSSRDNAKNPVYLQMNSLTPEDSAVYYCAADLPSYPYEYWGQGPQVTVSS,low polyreactivity
13,QVQLVESGGGLVQAGGSLRLSCAASGSTFPRNAMGWYRQAPGKDRELVAAISGSGGTTYYADSVKGRFTISRDNAKNTVYLQMNSLKPEDTAVYYCAARTSWAYPGGNYWGHGTQVTVSS,low polyreactivity
14,QVQLVESGGGLVQAGGSLRLSCAASGRTFRNYAMGWYRQAPGKERELVAAISSGGRTNYADSVKGRFTISRDNAKNTVYLQMNSLKPEDTADYYCAVRRGAFSTYPGYNYWGQGTQVTVSS,high polyreactivity
15,QVQLVESGGGLVQAGGSLRLSCAASGSTFYYYAMGWYRQAPGKERELVAAITNVTSTYYADSVKGRFTISRDNAKNTVYLQMNSLKPEDTAGYYCAAPDPSTEVTYDYWGQGTQVTVSS,low polyreactivity
16,QVQLVESGGCLVQAGGSLSLSCAASGFTFTYYDMGWYRQAPGKERELVAAITRRGGRTYYADSVKGRFTISRDNAKNTVYLQMNSLKPEDTAVYYCNADEYGGSTGRKGRYNYWGQGTQVTVSS,low polyreactivity
17,QFQLVESGGGLDQAGGSLRLICAASGITFDTNLMGWYRQAPGKERELVAAISARGGSTYYADSVKGRFTISRDNAKNTVYLQMNSLKPEDTAVYYCNAVIRPWQSYYYWGQGTQVTVSS,high polyreactivity
18,QVQLVESGGGLVQAGGSLRLSCAPSGFIFTLYAMGWYRQAPGKERELVASISSGGSTNYADSVKGRFTISRDNAKNTVYLQMHSLKPEATAVYYCDAYYYSKSDRFSGRYGRYYWGQVTQVTVSS,high polyreactivity
19,QVQLVESGGGLVQAGGSLRLSCAASGRTFGIYAMGWYRQAPGKERELVAAITGRGGSTHYADSVKGRFSISRDNAKNTVYLQMNSLKPEDTAVYYCAADYRYNRGITSNKDYDYWGQGTQVTVSS,low polyreactivity
20,QVQLVESGGGLVQAGGSLRLSCAASGSIFRYYAMGWYRQAPGKERELVARISWRAGSTYADSVKGRFTISRDNAKNTVYLQMNSLKPEDTAVYYCNADAHKYSWVGTSEYEYWGQGTQVTVSS,high polyreactivity
21,QVQLVESGGGLVQAGGSLRLSCAASGRTFRSNTMGWYRQAPGKEREFVAVITYSAGSTYYADSVKGRFTISRDNAKNTVYLQMNSLKPEDTAVYYCAATSKYRGDYWGQGTQVTVSS,high polyreactivity

# — the nanobody polyreactivity screen of Harvey et al. (2022)
